Test results as given in US20240190960A1 (Chugai, published 2024).

Legend:
[1] = molecular target: CD3 antibody CE115HA000 (CE115HA000-F760mnP17/GLS3000-k0); assay: SPR (Biacore), 37 C; ligand antibody captured on SuRe protein A chip (1000 RU), Fab as analyte at 100 nM for 180 s; amount of binding per 1 RU of ligand
Procedure: (§1) SuRe protein A (GE Healthcare) prepared at 25 μg/mL using Acetate4.5 (GE Healthcare) was immobilized on sensor chip CM4 at approximately 1000 RU per flow cell using an amine coupling kit (GE Healthcare).
(§2) First, to evaluate the binding specificity of the clamping antibodies, a ligand was reacted at 37° C. for 60 seconds at a flow rate of 10 μL/min to capture 1000 RU, and an analyte prepared at 100 nM was allowed to act for 180 seconds at a flow rate of 30 μL/min, and the amount of binding was measured.

[2] = molecular target: T1, negative control IC17 (IC17Hdk-F760mnP17/IC17L-k0); assay: as above
T1 construct: also called anti-KLH antibody
Procedure: as §1, §2

[3] = molecular target: CD3 antibody CE115HA056 (CE115HA056-F760mnP17/GLS3000-k0); assay: as above
Procedure: as §1, §2

[4] = molecular target: CD3 antibody CE115HA146 (CE115HA146-F760mnP17/GLS3000-k0); assay: as above
Procedure: as §1, §2

[5] = molecular target: T2, CD3ε epitope-fused GPC3 antibody (hGC33VHGP01-rabCH1hG1m/hGC33VL-rabk); assay: as above
T2 construct: control for recognition of the peptide alone
Procedure: as §1, §2

[6] = molecular target: T3, Biotinylated human CD3εδ heterodimer (Fc-fused human CD3ε / Fc-fused human CD3δ) (human, biotin on the Avi tag (BirA)); assay: BLI (Octet RED384); CD3εδ on streptavidin sensor, IC17 one arm for 120 s, then 1 µM Fab in HBS-EP+ for 120 s
T3 chain 1: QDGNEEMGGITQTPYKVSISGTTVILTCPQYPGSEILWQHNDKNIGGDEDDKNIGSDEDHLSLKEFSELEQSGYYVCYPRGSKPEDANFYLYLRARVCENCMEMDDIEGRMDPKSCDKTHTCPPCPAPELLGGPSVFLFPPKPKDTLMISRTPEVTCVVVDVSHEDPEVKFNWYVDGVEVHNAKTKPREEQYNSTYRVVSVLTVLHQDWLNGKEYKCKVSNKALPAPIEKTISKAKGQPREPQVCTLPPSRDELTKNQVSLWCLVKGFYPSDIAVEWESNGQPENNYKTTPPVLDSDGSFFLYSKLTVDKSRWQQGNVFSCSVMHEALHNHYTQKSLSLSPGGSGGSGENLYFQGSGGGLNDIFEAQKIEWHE
T3 chain 2: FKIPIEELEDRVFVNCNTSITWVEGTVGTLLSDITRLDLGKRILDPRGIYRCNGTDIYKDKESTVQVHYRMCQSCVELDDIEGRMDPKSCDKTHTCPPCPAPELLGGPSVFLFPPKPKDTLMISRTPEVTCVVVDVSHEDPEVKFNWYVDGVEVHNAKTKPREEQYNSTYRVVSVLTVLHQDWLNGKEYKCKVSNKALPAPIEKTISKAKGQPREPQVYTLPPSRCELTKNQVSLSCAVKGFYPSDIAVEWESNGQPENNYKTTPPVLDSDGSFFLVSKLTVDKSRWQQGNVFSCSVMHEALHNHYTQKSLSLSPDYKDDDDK
Procedure: (§3) Using an Octet RED 384 (ForteBio), a streptavidin sensor (ForteBio) was reacted with CD3εδ prepared at 0.2 μM in ACES at 37° C. for 300 seconds. […] Response values were extracted every three seconds, and graphs were depicted using Microsoft Excel 2013 (Microsoft).

[7] = molecular target: T4, CD3ε epitope-fused CE115HA056 (CE115HAGP12-rabIgG/GLS3000-rabk); assay: SPR (Biacore T200), ligand captured on protein A, Fab 0-400 nM as analyte, 37 C
T4 construct: rabbit constant regions; also called CE115HAPG12
Procedure: as §1
(§4) The sensor chip was regenerated by passing Glycine1.5 and 25 mM NaOH, each at a flow rate of 30 μL/min for 15 seconds. The dissociation constant KD (M) was calculated based on the association rate constant ka (1/Ms) and the dissociation rate constant kd (1/s), which are kinetic parameters calculated from the sensorgram obtained by the measurement. Biacore T200 Evaluation Software (GE Healthcare) was used for calculation of each parameter.

[8] = molecular target: T5, CD3ε epitope-fused CE115HA146 (CE115HAGP13-rabIgG/GLS3000-rabk); assay: as above
T5 construct: stands for the antigen/antibody complex; Rabbit constant regions; also called CE115HAPG13
Procedure: as §1, §4

[9] = molecular target: T3, Biotinylated human CD3εδ heterodimer …; assay: BLI (Octet RED384), 37 C; biotinylated CD3εδ on streptavidin sensor, one-arm antibody in solution for 120 s
Procedure: as §3

T2 sequence (VH, as listed by the source, chain 1 of 2): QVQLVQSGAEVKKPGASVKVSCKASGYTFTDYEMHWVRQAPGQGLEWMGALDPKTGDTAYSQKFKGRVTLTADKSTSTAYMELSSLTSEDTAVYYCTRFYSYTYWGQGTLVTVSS
T2 sequence (VL, as listed by the source, chain 2 of 2): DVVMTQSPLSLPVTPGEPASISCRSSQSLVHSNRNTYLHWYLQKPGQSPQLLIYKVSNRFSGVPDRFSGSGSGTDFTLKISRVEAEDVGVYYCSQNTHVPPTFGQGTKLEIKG
Chain of CD3 antibody CE115HA056 (CE115HA056-F760mnP17/GLS3000-k0) (heavy, as listed by the source): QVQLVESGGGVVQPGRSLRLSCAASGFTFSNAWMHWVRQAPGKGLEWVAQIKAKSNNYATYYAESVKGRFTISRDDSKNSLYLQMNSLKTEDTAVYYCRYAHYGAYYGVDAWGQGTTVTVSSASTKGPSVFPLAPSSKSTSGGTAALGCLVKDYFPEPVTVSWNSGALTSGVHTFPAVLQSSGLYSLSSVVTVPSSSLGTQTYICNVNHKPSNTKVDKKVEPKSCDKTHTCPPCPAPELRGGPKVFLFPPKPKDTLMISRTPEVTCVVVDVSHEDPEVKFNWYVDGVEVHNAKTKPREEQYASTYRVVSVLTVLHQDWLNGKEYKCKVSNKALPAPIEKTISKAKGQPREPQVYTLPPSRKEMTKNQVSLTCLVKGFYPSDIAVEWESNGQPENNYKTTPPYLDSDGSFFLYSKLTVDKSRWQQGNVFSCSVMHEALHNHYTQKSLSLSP
T4 sequence (heavy, as listed by the source, chain 1 of 2): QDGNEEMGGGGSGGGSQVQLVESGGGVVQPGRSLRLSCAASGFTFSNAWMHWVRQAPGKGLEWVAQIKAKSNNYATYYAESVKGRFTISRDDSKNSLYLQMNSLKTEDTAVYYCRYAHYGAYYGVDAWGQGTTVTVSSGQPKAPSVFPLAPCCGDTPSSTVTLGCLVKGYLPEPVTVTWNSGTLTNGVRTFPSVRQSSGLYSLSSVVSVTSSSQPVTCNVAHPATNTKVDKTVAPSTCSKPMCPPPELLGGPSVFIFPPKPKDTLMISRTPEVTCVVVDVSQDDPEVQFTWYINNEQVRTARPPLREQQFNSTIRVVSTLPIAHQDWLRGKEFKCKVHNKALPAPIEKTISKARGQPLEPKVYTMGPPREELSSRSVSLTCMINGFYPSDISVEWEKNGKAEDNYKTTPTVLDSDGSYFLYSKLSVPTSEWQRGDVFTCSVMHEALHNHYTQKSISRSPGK
T4 sequence (light, as listed by the source, chain 2 of 2): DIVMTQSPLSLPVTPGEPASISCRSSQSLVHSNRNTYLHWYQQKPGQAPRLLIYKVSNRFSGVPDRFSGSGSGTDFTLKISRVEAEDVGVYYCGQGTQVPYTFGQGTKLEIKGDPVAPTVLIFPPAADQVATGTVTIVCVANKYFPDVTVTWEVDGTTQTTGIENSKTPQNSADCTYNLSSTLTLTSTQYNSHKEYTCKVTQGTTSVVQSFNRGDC
T5 sequence (heavy, as listed by the source, chain 1 of 2): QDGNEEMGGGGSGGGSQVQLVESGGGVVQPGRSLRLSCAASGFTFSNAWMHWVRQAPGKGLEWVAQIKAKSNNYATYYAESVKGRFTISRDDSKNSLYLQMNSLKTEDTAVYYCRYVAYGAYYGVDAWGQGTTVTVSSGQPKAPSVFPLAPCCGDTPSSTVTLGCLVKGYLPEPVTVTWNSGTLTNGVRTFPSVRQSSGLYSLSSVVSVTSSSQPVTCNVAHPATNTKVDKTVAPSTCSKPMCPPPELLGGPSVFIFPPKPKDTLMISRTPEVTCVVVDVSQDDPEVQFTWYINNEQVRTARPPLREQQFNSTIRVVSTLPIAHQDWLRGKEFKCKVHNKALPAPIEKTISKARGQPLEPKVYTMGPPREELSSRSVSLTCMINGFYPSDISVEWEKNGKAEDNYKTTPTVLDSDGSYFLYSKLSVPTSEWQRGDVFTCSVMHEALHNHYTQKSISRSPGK
T5 sequence (light, as listed by the source, chain 2 of 2): as the sequence (light, as listed by the source, chain 2 of 2) above
Chain of CD3 antibody CE115HA000 (CE115HA000-F760mnP17/GLS3000-k0) (VH, as listed by the source, chain 1 of 2): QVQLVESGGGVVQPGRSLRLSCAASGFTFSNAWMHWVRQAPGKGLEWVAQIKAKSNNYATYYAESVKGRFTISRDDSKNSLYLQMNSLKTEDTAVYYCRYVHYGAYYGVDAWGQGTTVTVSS
Chain of CD3 antibody CE115HA000 (CE115HA000-F760mnP17/GLS3000-k0) (VL, as listed by the source, chain 2 of 2): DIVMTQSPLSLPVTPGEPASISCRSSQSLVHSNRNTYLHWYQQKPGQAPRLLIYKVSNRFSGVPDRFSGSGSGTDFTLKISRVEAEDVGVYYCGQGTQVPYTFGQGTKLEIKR
Chain of CD3 antibody CE115HA146 (CE115HA146-F760mnP17/GLS3000-k0) (heavy, as listed by the source): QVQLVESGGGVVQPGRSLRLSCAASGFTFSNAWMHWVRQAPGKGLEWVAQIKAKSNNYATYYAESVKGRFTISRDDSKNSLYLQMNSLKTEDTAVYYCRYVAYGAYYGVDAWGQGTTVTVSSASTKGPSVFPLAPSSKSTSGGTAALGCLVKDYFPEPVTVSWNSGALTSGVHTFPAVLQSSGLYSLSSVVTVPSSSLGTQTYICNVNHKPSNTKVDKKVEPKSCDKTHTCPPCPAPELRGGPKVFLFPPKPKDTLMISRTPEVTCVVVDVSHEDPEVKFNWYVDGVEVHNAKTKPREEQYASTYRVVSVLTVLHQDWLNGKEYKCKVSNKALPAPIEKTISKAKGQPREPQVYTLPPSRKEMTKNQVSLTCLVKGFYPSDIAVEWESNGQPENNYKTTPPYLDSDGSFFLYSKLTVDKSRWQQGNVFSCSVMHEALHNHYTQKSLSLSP

Binder | binding result [1] | binding result [2] | binding result [3] | binding result [4] | binding result [5] | binding result [6] | Kd [7] [nM] | Kd [8] [nM] | binding result [9]
CLA0334 Fab fragment (from CLA0334VH-F760mnP17/CLA0334VL-k0C) (Fab, V domains shown, Fab prepared from the full antibody with the Pierce Fab Preparation Kit; also called clamping antibody CLA0334) VH: QEQLEESGGDLVKPEGSLTLTCTASGFSLSVSYWICWVRQAPGKGLEWIACIYAGSTGSTWYANWAKGRFTISKTSSTTVTLQMTSLTAADTATYFCARDSGWNAFDLWGPGTLVTVSS VL: DVVMTQTPASVSAAVGGTVTIKCQASQSIGSNLAWYQQKSGHPPNLLIYEASGLASGVPLRFSGSGSGTQFTLTISDLECADAATYYCQSYYYSPSVSVHYAFGGGTEVVVKR | no binding (tested: 100 nM) | no binding (tested: 100 nM) | no binding (tested: 100 nM) | no binding (tested: 100 nM) | no binding (tested: 100 nM) | no binding (tested: 1 µM) | 110 | 150 | 
IC17 one arm (antibody, human IgG1, kappa, L234A L235A, N297A, also called negative control anti-KLH antibody IC17 one arm (IC17Hdk-pE22Hh/IC17L-k0//Kn010)) heavy chain (IC17Hdk-pE22Hh): QVQLQQSGPQLVRPGASVKISCKASGYSFTSYWMHWVNQRPGQGLEWIGMIDPSYSETRLNQKFKDKATLTVDKSSSTAYMQLSSPTSEDSAVYYCALYGNYFDYWGQGTTLTVSSASTKGPSVFPLAPSSKSTSGGTAALGCLVKDYFPEPVTVSWNSGALTSGVHTFPAVLQSSGLYSLSSVVTVPSSSLGTQTYICNVNHKPSNTKVDKKVEPKSCDKTHTCPPCPAPEAAGGPSVFLFPPKPKDTLMISRTPEVTCVVVDVSHEDPEVKFNWYVDGVEVHNAKTKPREEQYASTYRVVSVLTVLHQDWLNGKEYKCKVSNKALPAPIEKTISKAKGQPREPQVYTLPPSRCELTKNQVSLSCAVKGFYPSDIAVEWESNGQPENNYKTTPPVLDSDGSFFLVSKLTVDKSRWQQGNVFSCSVMHEALHNHYTQKSLSLSPDYKDDDDK light chain (IC17L-k0): DIQMTQSSSSFSVSLGDRVTITCKASEDIYNRLAWYQQKPGNAPRLLISGATSLETGVPSRFSGSGSGKDYTLSITSLQTEDVATYYCQQYWSTPYTFGGGTKLEVKRTVAAPSVFIFPPSDEQLKSGTASVVCLLNNFYPREAKVQWKVDNALQSGNSQESVTEQDSKDSTYSLSSTLTLSKADYEKHKVYACEVTHQGLSSPVTKSFNRGEC antibody fragment having no variable region (Kn010): not shown |  |  |  |  |  |  |  |  | no binding
